From article PMC32300
One block for each substance: values may come before it.

Key:
[1] = target: RPTPα-200-XFP (RPTPα-200-CFP and RPTPα-200-YFP); assay: cross-linking
[2] = target: RPTPα-516-XFP (RPTPα-516-CFP and RPTPα-516-YFP); assay: FRET or BRET
RPTPα-P137C [3] = assay: non-reducing SDS-PAGE
RPTPα-P137C [4] = assay: cross-linking
[5] = target: RPTPα-P137C-XFP (RPTPα-P137C-CFP and RPTPα-P137C-YFP); assay: FRET or BRET
[6] = target: full length RPTPα-XFP (RPTPα-CFP and RPTPα-YFP); assay: cross-linking
[7] = target: full length RPTPα-XFP (RPTPα-CFP and RPTPα-YFP); assay: FRET or BRET

RPTPα-200-XFP (RPTPα-200-CFP and RPTPα-200-YFP), sequence (P18052 20-829): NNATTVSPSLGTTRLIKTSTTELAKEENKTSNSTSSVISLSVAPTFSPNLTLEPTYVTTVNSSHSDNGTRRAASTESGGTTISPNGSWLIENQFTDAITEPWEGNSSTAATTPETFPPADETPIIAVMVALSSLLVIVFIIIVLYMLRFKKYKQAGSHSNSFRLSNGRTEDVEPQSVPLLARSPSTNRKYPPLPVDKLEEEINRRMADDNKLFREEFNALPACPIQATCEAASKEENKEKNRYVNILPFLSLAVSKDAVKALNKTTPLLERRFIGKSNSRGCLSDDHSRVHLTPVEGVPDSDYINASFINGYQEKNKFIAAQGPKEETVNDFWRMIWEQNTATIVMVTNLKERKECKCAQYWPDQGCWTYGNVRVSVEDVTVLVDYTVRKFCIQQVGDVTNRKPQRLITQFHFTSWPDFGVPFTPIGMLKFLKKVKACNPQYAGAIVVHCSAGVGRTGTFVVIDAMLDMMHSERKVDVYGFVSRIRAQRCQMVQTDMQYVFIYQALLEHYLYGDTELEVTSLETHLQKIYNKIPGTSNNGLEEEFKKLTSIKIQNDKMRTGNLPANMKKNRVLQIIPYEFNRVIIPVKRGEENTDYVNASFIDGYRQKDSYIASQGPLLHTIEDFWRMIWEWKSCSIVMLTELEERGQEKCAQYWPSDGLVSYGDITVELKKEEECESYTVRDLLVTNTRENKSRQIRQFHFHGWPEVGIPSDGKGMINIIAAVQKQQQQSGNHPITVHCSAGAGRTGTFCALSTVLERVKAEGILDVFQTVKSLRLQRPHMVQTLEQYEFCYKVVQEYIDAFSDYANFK
RPTPα-516-XFP (RPTPα-516-CFP and RPTPα-516-YFP), sequence (P18052 20-829): as above

Substance: RPTPα-200-XFP (RPTPα-200-CFP and RPTPα-200-YFP) (domain or fragment)
stoichiometry N [1]: 2

Substance: RPTPα-516-XFP (RPTPα-516-CFP and RPTPα-516-YFP) (domain or fragment)
F(440)/F(490) ratio [2]: 0.46

Substance: RPTPα-P137C-XFP (RPTPα-P137C-CFP and RPTPα-P137C-YFP) (receptor)
F(440)/F(490) ratio [5]: 0.5

The remaining lines, values ahead:

percent in the dimeric form (RPTPα-P137C [3]): > 80%
percent cross-linked by BS3 (RPTPα-P137C [4]): < 10%
Substance: RPTPα-P137C (receptor)

stoichiometry N [6]: 2
CFP fluorescence lifetime (τφ) [7]: 2.2 ns
Substance: full length RPTPα-XFP (RPTPα-CFP and RPTPα-YFP) (receptor)
